# From patent publication US5780025A, “Compositions and methods for the synthesis and assay of enkephalinase” (Genentech, Inc., priority 1993, dated 1998)
# How the values were obtained:
# Experiment in all cases: Fluorometric determination of kinetic parameters for hydrolysis of substrates by enkephalinase
# Assay type in all cases: biochemical, rat
# [1] = substrate: CC(=O)NCC(=O)N[C@@H](Cc1c[nH]c2ccccc12)C(=O)NCC(=O)O; settings: other: peptides I and II: HPLC analysis of 1 hr incubations of 1 mM peptide with 200 ng (I) or 50 ng (II) enzyme; pH 7.4; 37.0 °C
# Experimental: (§1) Fluorescence measurements were made using a Perkin Elmer, model 650-10S spectrofluorometer, equipped with a temperature controlled cell-holder, maintained at 37° C. Two procedures were used. The first combined a 50 μl solution of dansylated peptide with 50 μl of purified rat kidney enkephalinase in 50 mM, pH 7.4 HEPES buffer, containing 0.1% Tween 20, yielding a substrate concentration from 1 μM to 1 mM. After 1 hour at 37° C., 500 μl of 0.1M EDTA were added to the tubes. The 600 μl mixture was transferred into a quartz cuvette, and fluorescence measured. For dansyl-Gly-Trp-Gly, the excitation wavelength was set at 280 nm and emission at 360 nm. For the two tyrosine containing peptides, the excitation wavelength was at 277 nm and emission at 315 nm. Both slits were set at 2 nm. Known amounts of Trp-Gly and Tyr-Gly, diluted in the same mixture (100 μl HEPES, Tween 20, 500 μl EDTA), were run in parallel as standards. The fluorescence in the incubation media could thus be related to the amounts of hydrolyzed substrates. The second procedure permitted continuous monitoring of the hydrolysis of the dansylated peptides. A 500 μl solution of substrate at appropriate concentration, in 50 mM, pH 7.4 HEPES buffer containing 0.1% Tween 20 was pipetted in a quartz cuvette, and allowed to equilibrate in the cell holder of the fluorimeter at 37° C. Ten μl of purified rat kidney enkephalinase was added and the increase in tryptophan or tyrosine fluorescence was continuously monitored (excitation=280 nm, emission=360 nm for tryptophan, excitation 277, emission 315 for tyrosine). To minimize oxidation of tryptophan the intensity of excitation was reduced by adjusting the fluorimeter shutter so that a 10^-4 M solution of tryptophan in water gave a fluorescence of 20.0 with excitation set at 280 nm, emission at 360 nm, both slits at 2 nm, and sensitivity at 0.1. Under these conditions, tryptophan fluorescence was stable for over 2 hr.
# (§2) The kinetic parameters for the hydrolysis of dansyl-Gly-Trp-Gly, dansyl-Gly-Tyr-Gly and Dansyl-Gly-Tyr-Gly-NH2 by purified rat kidney enkephalinase were measured by incubating increasing concentrations of the substrates with the enzyme and stopping the reaction by the addition of EDTA before fluorescence measurements were taken (Table 4).
# (§3) Km and kcat values for substrates III, IV and V were obtained by measuring the increase in tryptophan or tyrosine fluorescence after 1 hr. incubations of increasing concentrations of substrates (from 1 μM to 1 mM) with 1 ng purified enzyme at 37° C. The kcat values for these substrates and peptides I and II were also obtained by HPLC analysis of 1 hr. incubations of 1 mM peptides with 200 ng (substrate I), 50 ng (substrates II and V), or 10 ng (substrates III and IV) enzyme. The kcat values obtained by both methods for substrates III, IV and V were in close agreement.
# [2] = substrate: CN(C)c1cccc2c(S(=O)(=O)NCC(=O)N[C@@H](Cc3c[nH]c4ccccc34)C(=O)NCC(=O)O)cccc12; settings: other: fluorescence after 1 hr incubation, 1 μM to 1 mM substrate, 1 ng purified enzyme, 37° C., pH 7.4
# Experimental: as §1, §2, §3
# [3] = substrate: CN(C)c1cccc2c(S(=O)(=O)NCC(=O)N[C@@H](Cc3ccc(O)cc3)C(=O)NCC(=O)O)cccc12; settings: other: fluorescence after 1 hr incubation, 1 μM to 1 mM substrate, 1 ng purified enzyme, 37° C., pH 7.4
# Experimental: as §1, §2, §3
# [4] = substrate: CN(C)c1cccc2c(S(=O)(=O)NCC(=O)N[C@@H](Cc3ccc(O)cc3)C(=O)NCC(N)=O)cccc12; settings: other: fluorescence after 1 hr incubation, 1 μM to 1 mM substrate, 1 ng purified enzyme, 37° C., pH 7.4
# Experimental: as §1, §2, §3
# [5] = substrate: NCC(=O)N[C@@H](Cc1c[nH]c2ccccc12)C(=O)NCC(=O)O; settings: other: peptides I and II: HPLC analysis of 1 hr incubations of 1 mM peptide with 200 ng (I) or 50 ng (II) enzyme; pH 7.4; 37.0 °C
# Experimental: as §1, §2, §3
protein,measurement,setting,value
"purified rat kidney enkephalinase (Rattus norvegicus) (protein, Rat kidney enkephalinase was purified to apparent homogeneity; from tissue; host or cells: rat kidney (male rats, membrane fraction, Triton X-100 solubilised)) MGRSESQMDITDINAPKPKKKQRWTPLEISLSVLVLLLTIIAVTMIALYATYDDGICKSSDCIKSAARLIQNMDASAEPCTDFFKYACGGWLKRNVIPETSSRYSNFDILRDELEVILKDVLQEPKTEDIVAVQKAKTLYRSCINESAIDSRGGQPLLTLLPDIYGWPVASQNWEQTYGTSWTAEKSIAQLNSKYGKKVLINFFVGTDDKNSTQHIIHFDQPRLGLPSRDYYECTGIYKEACTAYVDFMISVARLIRQEQRLPIDENQLSLEMNKVMELEKEIANATTKPEDRNDPMLLYNKMTLAKLQNNFSLEINGKPFSWSNFTNEIMSTVNINIQNEEEVVVYAPEYLTKLKPILTKYSPRDLQNLMSWRFIMDLVSSLSRNYKESRNAFRKALYGTTSETATWRRCANYVNGNMENAVGRLYVEAAFAGESKHVVEDLIAQIREVFIQTLDDLTWMDAETKKKAEEKALAIKERIGYPDDIISNENKLNNEYLELNYKEEEYFENIIQNLKFSQSKQLKKLREKVDKDEWISGAAVVNAFYSSGRNQIVFPAGILQPPFFSARQSNSLNYGGIGMVIGHEITHGFDDNGRNFNKDGDLVDWWTQQSANNFKDQSQCMVYQYGNFTWDLAGGQHLNGINTLGENIADNGGIGQAYRAYQNYVKKNGEEKLLPGLDLNHKQLFFLNFAQVWCGTYRPEYAVNSIKTDVHSPGNFRIIGTLQNSAEFADAFHCRKNSYMNPERKCRVW",kcat,[1],3.63 s⁻¹
same,Km,[2],30 µM
same,kcat,[2],15 s⁻¹
same,kcat/Km,[2],500000 M⁻¹ s⁻¹
same,Km,[3],41 µM
same,kcat,[3],19.05 s⁻¹
same,kcat/Km,[3],467000 M⁻¹ s⁻¹
same,Km,[4],90 µM
same,kcat,[4],4.13 s⁻¹
same,kcat/Km,[4],50000 M⁻¹ s⁻¹
same,kcat,[5],0.883 s⁻¹
